Entries after “also recorded” stand apart in the source; their conditions may differ. No end group written: not given here.
T1: Domain I+II of 3D7 PfAMA1 (residue 104-442), immobilised for SPR (Plasmodium falciparum 3D7, UniProt Q7KQK5 104-442)
T1 sequence (looked up): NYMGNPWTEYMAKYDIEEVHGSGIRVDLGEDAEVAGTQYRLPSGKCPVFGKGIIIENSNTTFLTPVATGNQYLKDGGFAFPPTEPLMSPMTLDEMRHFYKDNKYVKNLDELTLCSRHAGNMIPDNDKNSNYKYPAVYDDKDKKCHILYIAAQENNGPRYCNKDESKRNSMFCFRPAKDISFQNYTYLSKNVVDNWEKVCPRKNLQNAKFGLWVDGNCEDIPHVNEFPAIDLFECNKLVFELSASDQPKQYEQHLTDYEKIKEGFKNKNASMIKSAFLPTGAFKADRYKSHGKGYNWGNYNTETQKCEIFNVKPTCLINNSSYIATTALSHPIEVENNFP

T2: Fractionally deuterated 3D7 PfAMA1 (residue 104-442), His6 tag cleaved, for NMR (Plasmodium falciparum 3D7, UniProt Q7KQK5 104-442, randomly fractionally deuterated (f-2H))
T2 sequence (looked up): T1 sequence (looked up)

B1: R1_(5-16) K11A (peptide)
peptide: Ac-FLPLFSAFGSRM-NH2
notes: also called Lys11Ala mutant; source: synthetic peptide (Mimotopes)
B2: Recombinant f-2H, u-13C, 15N-labelled R1 peptide (peptide)
peptide: VFAEFLPLFSKFGSRMHILK
modifications: not fully specified
notes: source: E. coli BL21 (DE3), thioredoxin fusion from pET32a, purified (HisTrap, enterokinase cleavage, HiTrap QFF, RP-HPLC)

Target: T1, Domain I+II of 3D7 PfAMA1 (residue …)
Experiment: SPR
Conditions: both partners purified

Question: Which Kd does the source give for Ac-FLPLFSKFGSRM-NH2 (source: synthetic peptide (Mimotopes)) [R1_(5-16)] here?
Answer: 1.8 µM

Question: How did the Kd turn out when Ac-FLALFSKFGSRM-NH2 (source: synthetic peptide (Mimotopes)) [R1_(5-16) P7A] was run?
Answer: 61 µM

Question: How did the Kd turn out when Ac-FLPLFSKFGSAM-NH2 (source: synthetic peptide (Mimotopes)) [R1_(5-16) R15A] was run?
Answer: > 100 µM

Question: With Ac-FLPLFSKFGSRA-NH2 (source: synthetic peptide (Mimotopes)) [R1_(5-16) M16A] as the molecule, how does the Kd read?
Answer: 2.7 µM

Question: Which Kd does the source give for Ac-FLPLFSKAGSRM-NH2 (source: synthetic peptide (Mimotopes)) [R1_(5-16) F12A] here?
Answer: 87 µM

Question: For B1, which Kd is on record?
Answer: 27 µM

Question: With Ac-FAPLFSKFGSRM-NH2 (source: synthetic peptide (Mimotopes)) [R1_(5-16) L6A] as the molecule, how does the Kd read?
Answer: 60 µM

Question: How did the Kd turn out when Ac-FLPLFSKFASRM-NH2 (source: synthetic peptide (Mimotopes)) [R1_(5-16) G13A] was run?
Answer: 39 µM

Question: For Ac-FLPLFAKFGSRM-NH2 (source: synthetic peptide (Mimotopes)) [R1_(5-16) S10A], which Kd is on record?
Answer: 4.8 µM

Question: With Ac-FLPLFSKFGARM-NH2 (source: synthetic peptide (Mimotopes)) [R1_(5-16) S14A] as the molecule, how does the Kd read?
Answer: 3.3 µM

Target: T2, Fractionally deuterated 3D7 PfAMA1 …
Experiment: NMR titration
Conditions: both partners purified

Question: How did the “stoichiometry N” value turn out when B2 was run?
Answer: 1

Target: T3, 3D7 PfAMA1_104–442 (Plasmodium falciparum, UniProt Q7KQK5)
T3 construct: His6 (TEV-cleavable); made in house
Experiment: SPR analysis of peptides binding to immobilized AMA1 (Biacore T200)
Conditions: SPR alanine scan, 1% DMSO in HBS-EP, 25°C
Procedure: A Biacore T200 biosensor instrument was used to measure the affinity of the interaction of peptides with 3D7 PfAMA1_104–442. AMA1 was immobilized onto a CM5 chip as described. Surface plasmon resonance (SPR) experiments were performed at 25°C using HBS-EP (10 mM HEPES, 150 mM NaCl, 3.4 mM EDTA, and 0.05% surfactant P20, pH 7.4) as the running buffer either with (alanine scanning mutagenesis study) or without (truncation study) 1% DMSO. All peptide samples were prepared in the appropriate running buffer. To generate the peptide binding data, peptide at concentrations ranging from 10 nM to 10 µM was injected over immobilized AMA1 at a constant flow rate of 60 µL/min for 1.5 min; peptide dissociation was monitored by flowing running buffer at 60 µL/min for 5 min. The surface was regenerated after each cycle by injecting glycine/HCl at pH 2.0. Sensorgrams were first zeroed on the y-axis and then x-aligned at the start of the injection. Bulk refractive index changes were eliminated by subtracting the reference flow cell responses. For kinetic analysis, ka and kd were determined from the processed data sets by globally fitting to a 1∶1 binding model. For rapidly associating/dissociating truncated peptides, K D was determined by fitting to a steady-state affinity model using a fixed Rmax that was calculated based on the response of R1_5–16.

Question: Which “fold reduction in affinity for AMA1 relative to R1_5–16” value does the source give for Ac-FAPLFSKFGSRM-NH2 [R1_5–16 L6A] here?
Answer: 33 fold

Question: Ac-FLALFSKFGSRM-NH2 [R1_5–16 P7A] was tested. Which “fold reduction in affinity for AMA1 relative to R1_5–16” value did it give?
Answer: 35 fold

Question: How did the “fold reduction in affinity for AMA1 relative to R1_5–16” value turn out when Ac-FLPLFAKFGSRM-NH2 [R1_5–16 S10A] was run?
Answer: less than 3 fold

Question: Ac-FLPLFSAFGSRM-NH2 [R1_5–16 K11A] was tested. Which “fold reduction in affinity for AMA1 relative to R1_5–16” value did it give?
Answer: 15 fold

Question: Ac-FLPLFSKAGSRM-NH2 [R1_5–16 F12A] was tested. Which “fold reduction in affinity for AMA1 relative to R1_5–16” value did it give?
Answer: 48 fold

Question: How did the “fold reduction in affinity for AMA1 relative to R1_5–16” value turn out when Ac-FLPLFSKFASRM-NH2 [R1_5–16 G13A] was run?
Answer: 21 fold

Question: Ac-FLPLFSKFGARM-NH2 [R1_5–16 S14A] was tested. Which “fold reduction in affinity for AMA1 relative to R1_5–16” value did it give?
Answer: less than 3 fold

Question: For Ac-FLPLFSKFGSRA-NH2 [R1_5–16 M16A], which “fold reduction in affinity for AMA1 relative to R1_5–16” value is on record?
Answer: less than 3 fold

Same assay, conditions: SPR truncation study, no DMSO, 25°C

Question: For Ac-EFLPLFSKFGSRMH-NH2 [R1_4–17], which “reduction of binding affinity relative to native R1” value is on record?
Answer: ~10 fold

Question: For Ac-FLPLFSKFGSRM-NH2 [R1_5–16], which “reduction of binding affinity relative to native R1” value is on record?
Answer: ~10 fold

Same assay, conditions: SPR truncation study, no DMSO, 25°C; relative to R1_5–16

Question: Which “further reduction in K D (affinity) on truncation of R1_5–16 to the 11-residue peptide” value does the source give for Ac-FLPLFSKFGSR-NH2 [R1_5–15] here?
Answer: ~5 fold

Same assay, conditions: SPR, AMA1 immobilized on CM5 chip, HBS-EP running buffer pH 7.4, no DMSO, 25°C; kinetic 1:1 fit (native R1) or steady-state affinity fit; peptide 10 nM to 10 µM; No binding = no binding event up to 10 µM peptide

Question: “R1_1–11: truncated R1 analogue, N-terminally acetylated and C-terminally amidated (Ac-VFAEFLPLFSK-NH2)” was tested. Which “Equilibrium dissociation constant K D, truncated R1” value did it give?
Answer: no detectable binding; also recorded: No binding ^b

Question: For “R1_5–14: 10-residue truncated R1 peptide, Arg15 deleted (Ac-FLPLFSKFGS-NH2)”, which “Equilibrium dissociation constant K D, truncated R1” value is on record?
Answer: abolished measurable binding; also recorded: No binding ^b

Question: How did the “Equilibrium dissociation constant K D, truncated R1” value turn out when “R1_11–20: truncated R1 analogue, N-terminally acetylated and C-terminally amidated (Ac-KFGSRMHILK-NH2)” was run?
Answer: No binding ^b

Target: T1, Domain I+II of 3D7 PfAMA1 (residue …)
Experiment: SPR
Conditions: both partners purified
Remark: another data set of the same source

Question: With Ac-EFLPLFSKFGSRMH-NH2 (source: synthetic peptide (Mimotopes)) [R1_(4-17)] as the molecule, how does the Kd read?
Answer: 0.88 µM

Question: With Ac-FLPLFSKFGSR-NH2 (source: synthetic peptide (Mimotopes)) [R1_(5-15)] as the molecule, how does the Kd read?
Answer: 4.6 µM

Question: Ac-FLPLFSKFGSRM-NH2 (source: synthetic peptide (Mimotopes)) [R1_(5-16)] was tested. Which Kd did it give?
Answer: 0.99 µM

Question: VFAEFLPLFSKFGSRMHILK [Native R1 peptide] was tested. Which Kd did it give?
Answer: 0.11 µM

Target: T1, Domain I+II of 3D7 PfAMA1 (residue …)
Experiment: SPR
Conditions: both partners purified
Remark: another data set of the same source

Question: VFAEFLPLFSKFGSRMHILK [Native R1 peptide] was tested. Which “stoichiometry N” value did it give?
Answer: 1
